Assay [1] deals with DRB1*07:01. The note with it: modification not given.
Assay [2] has as its target DRB1*15:01. The note with it: modification not given.
The target in assay [3] is DRB1*15:01. The note with it: modification not given. The source holds these as a separate data set.
Assay [4] has as its target DRB1*07:01. The note with it: modification not given. This is another data set of the same source.
The target in assay [5] is DRB1*15:01. Conditions: modification not given. This is another data set of the same source.
Assay [6] has as its target DRB1*15:01. The note with it: modification not given. This is another data set of the same source.
In assay [7] the target is SARS-CoV-2 peptide on HLA-A*24:02 (human). Nature of the assay: barcoded tetramer library on ex vivo CD8+ T cells, single-cell sequencing; T cell clone or line. The note with it: chains Valpha:Vbeta.
Assay [8] concerns the target DRB1*07:01. Conditions: modification not given. The source holds these as a separate data set.
The target of assay [9] is DRB1*15:01. Conditions: modification not given. The source holds these as a separate data set.
Assay [10] has as its target DRB1*15:01. The note with it: modification not given. The source holds these as a separate data set.
For assay [11], the target named is DRB1*07:01. Conditions: modification not given. This is another data set of the same source.
Assay [12] deals with DRB1*07:01. The note with it: modification not given. This is another data set of the same source.
Assay [13] has as its target DRB1*15:01. Conditions: modification not given. This is another data set of the same source.
Assay [14] deals with DRB1*07:01. The note with it: modification not given. This is another data set of the same source.
For assay [15], the target named is DRB1*07:01. Conditions: modification not given. The source holds these as a separate data set.
The target of assay [16] is DRB1*07:01. The note with it: modification not given. This is another data set of the same source.
The target in assay [17] is DRB1*15:01. The note with it: modification not given. The source holds these as a separate data set.
Assay [18] addresses DRB1*07:01. Conditions: modification not given. The source holds these as a separate data set.
Assay [19] deals with DRB1*07:01. The note with it: modification not given. The source holds these as a separate data set.
Assay [20] has as its target DRB1*07:01. Conditions: modification not given. The source holds these as a separate data set.
The target in assay [21] is DRB1*15:01. Conditions: modification not given. This is another data set of the same source.
The target in assay [22] is DRB01*15:01. Conditions: modification not given.
Assay [23] deals with DRB1*07:01. The note with it: modification not given. The source holds these as a separate data set.
Assay [24] has as its target DRB1*15:01. Conditions: modification not given. This is another data set of the same source.
Assay [25] has as its target DRB1*07:01. Conditions: modification not given. This is another data set of the same source.
Assay [26] has as its target DRB1*15:01. The note with it: modification not given. This is another data set of the same source.
Assay [27] addresses DRB1*15:01. Conditions: modification not given. The source holds these as a separate data set.
A further assay addresses DRB01*11:01. The note with it: chains peptide; modification not given.
For another assay, the target named is DRB01*04:04. The note with it: chains peptide; modification not given.
A further assay concerns the target DRB01*07:01. Conditions: chains peptide; modification not given.
Assay [28] has as its target DRB01*15:01. Conditions: chains peptide; modification not given.
Assay [29] deals with DRB1*07:01. The note with it: modification not given. This is another data set of the same source.
Assay [30] deals with DRB1*15:01. The note with it: modification not given. This is another data set of the same source.
Assay [31] has as its target DRB1*07:01. The note with it: modification not given. This is another data set of the same source.

Where two headings read alike, the source gives them in different places.

The IC50 is the concentration that gives 50% inhibition. With KKFLPFQQFGRDIAD [… (position 557)], the IC50 in the assay with DRB1*07:01 [1] stood at 1630 nM; with DRB1*15:01 [2], 6440 nM.

Turning to PLSETKCTLKSFTVE [… (position 295)], the half-inhibitory concentration (IC50) with DRB1*15:01 [3] amounted to 15500 nM.

Take TFEYVSQPFLMDLEG [… (position 167)]: the IC50 worked out at 442 nM with DRB1*07:01 [4] and 7660 nM with DRB1*15:01 [5].

TSVDCTMYICGDSTE [… (position 734)] came in with a 50% inhibitory concentration (IC50) in the assay with DRB1*15:01 [6] of 36700 nM.

B1: TCR_101 (protein)
chain 1: EDQVTQSPEALRLQEGESSSLNCSYTVSGLRGLFWYRQDPGKGPEFLFTLYSAGEEKEKERLKATLTKKESFLHITAPKPEDSATYLCAVHLNDYKLSFGAGTTVTVRA
chain 2: NAGVMQNPRHLVRRRGQEARLRCSPVKGHSHVYWYRQLPEEGLKFMVYLQKENIIDESGMPKERFSAEFPKEGPSILRIQQVVRGDSAAYFCASSRPSGQGNNGYTFGSGTRLTVV
In turn, B1 came in with a No. of Cells in assay [7] of 2 cells.

NSPRRARSVASQSII [… (position 679)]: the 50% inhibitory concentration (IC50) with DRB1*07:01 [8] amounted to 206 nM; with DRB1*15:01 [9], 25500 nM.

B2: TCR_109 (protein)
chain 1: AQKITQTQPGMFVQEKEAVTLDCTYDTSDQSYGLFWYKQPSSGEMIFLIYQGSYDEQNATEGRYSLNFQKARKSANLVISASQLGDSAMYFCAMRDSNSNSGYALNFGKGTSLLVTP
chain 2: DAEITQSPRHKITETGRQVTLACHQTWNHNNMFWYRQDLGHGLRLIHYSYGVQDTNKGEVSDGYSVSRSNTEDLPLTLESAASSQTSVYFCASSDGHQGLQETQYFGPGTRLLVL
In the case of B2, the No. of Cells in assay [7] worked out at 2 cells.

In the case of KLPDDFTGCVIAWNS [… (position 424)], the IC50 with DRB1*15:01 [10] amounted to 2060 nM.

In the assay with DRB1*07:01 [11], PLVSSQCVNLTTRTQ [… (position 9)] displayed a 50% inhibitory concentration (IC50) of 838 nM.

B3: TCR_76 (protein)
chain 1: QQQVKQSPQSLIVQKGGISIINCAYENTAFDYFPWYQQFPGKGPALLIAIRPDVSEKKEGRFTISFNKSAKQFSLHIMDSQPGDSATYFCAASNRGGSEKLVFGKGTKLTVNP
chain 2: NAGVTQTPKFQVLKTGQSMTLQCAQDMNHEYMSWYRQDPGMGLRLIHYSVGAGITDQGEVPNGYNVSRSTTEDFPLRLLSAAPSQTSVYFCASSYHAGDRGFGYTFGSGTRLTVV
Consider B3, for which the No. of Cells in assay [7] was determined as 2 cells.

For TWRVYSTGSNVFQTR [… (position 632)], the results for the IC50 with DRB1*07:01 [12] and with DRB1*15:01 [13] were 220 nM and 1950 nM, respectively.

Consider NVVIKVCEFQFCNDP [… (position 125)], for which, in the assay with DRB1*07:01 [14], the concentration for half-maximal inhibition (IC50) worked out at 6610 nM.

As to ASQSIIAYTMSLGAE [… (position 688)], in the assay with DRB1*07:01 [15], the IC50 came to 124 nM.

Take TVEKGIYQTSNFRVQ [… (position 307)]: the IC50 with DRB1*07:01 [16] was determined as 316 nM; with DRB1*15:01 [17], 378 nM.

PAYTNSFTRGVYYPD [… (position 26)] registered an IC50 with DRB1*07:01 [18] of 153 nM.

With PFAMQMAYRFNGIGV [… (position 897)], the IC50 with DRB1*07:01 [19] came to 158 nM.

Take DSLSSTASALGKLQD [… (position 936)]: the values for the IC50 with DRB1*07:01 [20] and with DRB1*15:01 [21] were 1020 nM and 10900 nM, respectively.

For the molecule TLLALHRSYLTPGDS [Positive Control …], the 50% inhibitory concentration (IC50) with DRB01*15:01 [22] turned out to be 257 nM.

As to NFRVQPTESIVRFPN [… (position 317)], the IC50 with DRB1*07:01 [23] was found to be 1620 nM; with DRB1*15:01 [24] it was 1020 nM.

On to GVYFASTEKSNIIRG [… (position 89)], for which the IC50 came to 99 nM with DRB1*07:01 [25] and 15500 nM with DRB1*15:01 [26].

QKFNGLTVLPPLLTD [… (position 853)] showed a concentration for half-maximal inhibition (IC50) with DRB1*15:01 [27] of 1710 nM.

Consider RGHLRIAGHHLGRCDIKDLPKEI [SEQ ID NO 307], for which the half-inhibitory concentration (IC50) with DRB01*11:01 was 561 nM; with DRB01*04:04, 1730 nM; in the assay with DRB01*07:01, 10200 nM; with DRB01*15:01 [28], 5090 nM.

Turning to FRSSVLHSTQDLFLP [… (position 43)], the IC50 stood at 85 nM with DRB1*07:01 [29] and 5570 nM with DRB1*15:01 [30].

Molecule TLLALHRSYLTPGDS [… (position 240)] returned an IC50 with DRB1*07:01 [31] of 298 nM.

The values are drawn from patent US20220033460A1, “IDENTIFICATION AND USE OF T CELL EPITOPES IN DESIGNING DIAGNOSTIC AND THERAPEUTIC APPROACHES FOR COVID-19” (priority 2020, published 2022).
